This note sets out measurements from patent US6409648, “Polynucleotides encoding TRF1 binding proteins” (The Regents of the University of California).

The labels stand for the following.
B2: Myc-Tin2 (Tin2 with a 13 aa c-Myc epitope at the N-terminus) (other, not shown: small tags and cut ends)
chain: MATPLVAGPAALRFAAAASWQVVRGRCVEHFPRVLEFLRSLRAVAPGLVRYRHHERLCMGLKAKVVVELILQGRPWAQVLKALNHHFPESGPIVRDPKATKQDLRKILEAQETFYQQVKQLSEAPVDLASKLQELEQEYGEPFLAAMEKLLFEYLCQLEKALPTPQAQQLQDVLSWMQPGVSITSSLAWRQYGVDMGWLLPECSVTDSVNLAEPMEQNPPQQQRLALHNPLPKAKPGTHLPQGPSSRTHPEPLAGRHFNLAPLGRRRVQSQWASTRGGHKERPTVMLFPFRNLGSPTQVISNPESKEEHAIYTADLAMGTRAPSNGKYKGPYQTLGGRALKENPVDLPATEQKE
notes: Made by in vitro translation (rabbit reticulocyte lysate, 35S-methionine) or expressed in HT1080 cells from a retrovirus

Data set [1] concerns the target T1, HA-Trf1 (Trf1 with a 10 aa hemagglutinin epitope at the N-terminus) (human, UniProt P54274 1-439).
T1 construct: In vitro translated (major 60 kD and minor about 40 kD products), or expressed in HT1080 cells
T1 sequence (looked up): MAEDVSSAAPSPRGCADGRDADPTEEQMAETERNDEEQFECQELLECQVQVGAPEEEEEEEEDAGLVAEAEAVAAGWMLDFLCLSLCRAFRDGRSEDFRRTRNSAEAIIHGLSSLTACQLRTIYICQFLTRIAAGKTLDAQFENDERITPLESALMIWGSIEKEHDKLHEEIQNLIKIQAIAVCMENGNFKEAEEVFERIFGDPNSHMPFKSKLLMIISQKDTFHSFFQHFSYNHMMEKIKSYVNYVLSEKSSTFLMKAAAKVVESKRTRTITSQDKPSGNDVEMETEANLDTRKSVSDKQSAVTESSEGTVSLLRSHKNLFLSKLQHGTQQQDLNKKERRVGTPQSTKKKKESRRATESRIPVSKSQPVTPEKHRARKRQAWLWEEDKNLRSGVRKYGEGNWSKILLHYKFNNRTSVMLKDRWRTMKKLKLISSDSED
Description: EMSA with nuclear extract of HA-Trf1 expressing cells and telomeric DNA probe.

For data set [2], the target named is B2. The data set is described as follows: co-immunoprecipitation with anti-GST of in vitro translated radiolabeled protein, SDS-PAGE.
For data set [3], the target named is T2, HA-tagged hTERT protein (human telomerase catalytic subunit) (human, UniProt O14746 1-1132).
T2 construct: Transiently expressed in Myc-Tin2-expressing cells; not shown: HA tag
Description: co-immunoprecipitation from cells.

For data set [4], the target named is T1, HA-Trf1 (Trf1 with a 10 aa …). Description: co-immunoprecipitation of mixed in vitro translation products, SDS-PAGE.
Data set [5] addresses T3, Trf1 + Tin2 complex (human, UniProt P54274;Q9BSI4-2 P54274:1-439,Q9BSI4-2:1-354). Description: pulldown; probe pairing (6X-Tel/labeled Bi-6X-Tel) over Trf1 alone; 4-5 fold with unlabeled Bi-6X-Tel; abolished by excess unlabeled [TTAGGG]7. As to conditions: tags: 6his on both, baculovirus/Sf9; chain copies: 2 Trf1 + 2 Tin2 in TT-AA (stated as likely); label: 32P (6X-Tel); 5' biotin (Bi-6X-Tel). Here is the method: The 178 bp probe (6X-Tel) and the 126 bp probe (Bi-6X-Tel) were used either labeled or unlabeled. The probes were mixed together, incubated with purified 6his-proteins under optimized conditions, and Bi-6X-Tel probes were collected on streptavidin-agarose beads, as described below. […] Released labeled probes were identified by PAGE.
(§1) 6his-Trf1 (150 ng) and increasing amounts of 6his-Tin2 were incubated with a double stranded TTAGGG_6 probe, and protein-DNA complexes were analyzed by EMSA. Probes containing [TTAGGG]_6 and flanking sequences were synthesized by PCR. 6X-Tel was 178 bp, and labeled with ^32P (*). Bi-6X-Tel was 126 bp, biotinylated at a 5' end, and either labeled (*) or unlabeled. The 6X-Tel probe was incubated with labeled or unlabeled Bi-6X-Tel probe, and 6his-Trf1 (150 ng), 6his-Tin2 (60 ng), GST (100 ng), GST-Tin2–13 (100 ng) and/or 100 fold excess unlabeled [TTAGGG]_7, followed by incubation with streptavidin-agarose beads. The beads were collected, and components released and analyzed by PAGE. Signals were quantified using a phosphorimager and ImageQuant. Reaction mixtures were analyzed by EMSA.
In the absence of protein or presence of Tin 2 alone, virtually no 6X-Tel probe, and very little labeled Bi-6X-Tel was released. […] Trf1 alone increased the amount of both 6X-Tel and labeled Bi-6X-Tel that were released. […]

The target in data set [6] is T4, Trf1 (6his-Trf1) (human, UniProt P54274 P54274:1-439). Description: EMSA; TT plus minor TT**, TT*** and small amount of TT-AAX; Trf1 alone induces probe-probe pairing. The settings on record: tags: 6his, baculovirus/Sf9; chain copies: 2 (homodimer, stated); label: 32P (6X-Tel); 5' biotin (Bi-6X-Tel). As for the experimental part:
as §1
Under these optimized conditions, Trf1 alone formed a small amount of TT-AAX which was greatly stimulated by Tin2. Also under these conditions, Trf1 alone formed two minor complexes that are likely due to two (TT) and three (TT*) Trf1 homodimers loaded onto the probe (Bianchi et al., 1997). The Tin2–13 mutant supershifted all three TT complexes, as expected from its ability to bind Tfr1.

For data set [7], the target named is T4, Trf1 (6his-Trf1). The data set is described as follows: EMSA; single TT complex; probe not restated, taken as [TTAGGG]13. As to conditions: tags: 6his, baculovirus/Sf9; chain copies: 2 (homodimer, stated). Here is the method: (§2) Nuclear extracts were prepared as described (Dimri et al., 1994), and dialyzed against 20 mM HEPES, pH 7.9, 100 mM KCl, 0.5 mM DTT, 0.5 mM PMSF. [TTAGGG]_6 and $[TTAGGG]13$ in pBluescript were excised, labeled using Klenow or PCR and gel purified. EMSA was performed as described (Zhong et al., 1992) in 20 ul containing 0–20 ug GST or GST-fusion proteins, 6–8 ug nuclear extract protein or 5 ul in vitro translation reaction, using a 30 min incubation at room temperature and 5% PAGE run with 1× Tris-borate-EDTA buffer.
(§3) To determine the nature of TT-AAX, DNA complexes formed by purified proteins were examined. 6his-tagged Trf1 and Tin2 were produced and purified from baculovirus-infected cells. […] Moreover, 6his-Tin2, added in increasing amounts to 6his-Trf1 and probe, shifted all the TT to TT-AAX . Since 6his-Tin2 formed more TT-AAX than GST-Tin2, the GST moiety may reduce TT-AAX formation or stability. Nuclear extract had only a small effect on TT-AAX formation. […] Addition of 6his-Trf1 produced TT, and 6his-Tin2 shifted all the TT to TT-AAX. However, somewhat more TT-AAX was formed in the presence of nuclear extract than its absence. Thus, TT-AAX required only Trf1, Tin2 and telomeric DNA, but other nuclear proteins might enhance its formation or stability.

The target in data set [8] is T3, Trf1 + Tin2 complex. The data set is described as follows: EMSA; all TT shifted to TT-AAX; nuclear extract slightly enhances. As to conditions: tags: 6his on both, baculovirus/Sf9; chain copies: 2 Trf1 + 2 Tin2 in TT-AA (stated as likely). Here is the method:
as §2, §3
On the technique in general: In EMSA bound probe runs differently from free probe, usually more slowly.

Data set [9] addresses Trf1 (HA-Trf1, in vitro translated) (human, UniProt P54274 P54274:1-439). Description: EMSA; specific protein-DNA complex TT. Here is the method:
as §2
This was true whether Tin2 was translated in vitro, purified from *E. coli* as a GST-fusion protein, or purified from baculovirus infected insect cells as a 6-histidine (6his)-tagged protein. […] In contrast, Trf1, whether translated in vitro or in nuclear extracts from HA-Trf1 overexpressing cells, formed a specific protein-DNA complex (Chong et al., 1995). Since Trf1 binds DNA as a homodimer (Bianchi et al., 1997), this complex was designated TT. To determine whether Tin2 interacts with this complex, WT or mutant GST-Tin2 proteins were added to nuclear extracts from HA-Trf1 expressing cells.

T2 sequence (O14746 whole entry): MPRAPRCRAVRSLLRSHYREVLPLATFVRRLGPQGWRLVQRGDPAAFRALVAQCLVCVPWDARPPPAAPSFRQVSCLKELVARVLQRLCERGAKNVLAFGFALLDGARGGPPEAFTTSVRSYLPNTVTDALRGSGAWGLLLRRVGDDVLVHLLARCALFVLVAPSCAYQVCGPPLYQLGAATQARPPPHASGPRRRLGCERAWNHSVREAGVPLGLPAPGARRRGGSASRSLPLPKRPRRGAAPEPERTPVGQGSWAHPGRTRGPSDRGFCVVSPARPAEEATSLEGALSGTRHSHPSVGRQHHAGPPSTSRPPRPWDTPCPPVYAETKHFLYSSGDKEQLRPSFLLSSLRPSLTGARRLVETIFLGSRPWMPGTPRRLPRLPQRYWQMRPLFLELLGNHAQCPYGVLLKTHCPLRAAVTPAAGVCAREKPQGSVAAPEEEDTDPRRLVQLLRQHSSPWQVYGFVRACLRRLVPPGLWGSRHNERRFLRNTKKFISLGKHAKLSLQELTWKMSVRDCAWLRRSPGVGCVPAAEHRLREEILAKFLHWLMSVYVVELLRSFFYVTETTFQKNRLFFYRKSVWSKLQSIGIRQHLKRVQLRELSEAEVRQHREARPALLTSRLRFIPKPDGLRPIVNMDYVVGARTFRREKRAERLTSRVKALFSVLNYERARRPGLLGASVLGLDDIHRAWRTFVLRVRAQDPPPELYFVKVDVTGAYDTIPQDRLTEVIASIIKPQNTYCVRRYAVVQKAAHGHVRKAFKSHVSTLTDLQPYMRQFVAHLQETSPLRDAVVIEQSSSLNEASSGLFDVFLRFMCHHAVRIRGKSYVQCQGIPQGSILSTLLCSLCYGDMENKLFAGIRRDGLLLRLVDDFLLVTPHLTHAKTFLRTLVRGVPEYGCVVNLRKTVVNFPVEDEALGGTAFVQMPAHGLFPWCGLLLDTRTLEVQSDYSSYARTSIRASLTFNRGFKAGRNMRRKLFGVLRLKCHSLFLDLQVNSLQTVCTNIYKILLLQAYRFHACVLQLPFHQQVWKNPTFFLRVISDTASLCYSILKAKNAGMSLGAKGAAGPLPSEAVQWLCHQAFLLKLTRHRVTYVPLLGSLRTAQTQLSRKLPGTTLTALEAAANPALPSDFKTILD

B1: GST-Tin2 (wild-type Tin2 with glutathione-S-transferase linked to the N-terminus) (other)
chain: MATPLVAGPAALRFAAAASWQVVRGRCVEHFPRVLEFLRSLRAVAPGLVRYRHHERLCMGLKAKVVVELILQGRPWAQVLKALNHHFPESGPIVRDPKATKQDLRKILEAQETFYQQVKQLSEAPVDLASKLQELEQEYGEPFLAAMEKLLFEYLCQLEKALPTPQAQQLQDVLSWMQPGVSITSSLAWRQYGVDMGWLLPECSVTDSVNLAEPMEQNPPQQQRLALHNPLPKAKPGTHLPQGPSSRTHPEPLAGRHFNLAPLGRRRVQSQWASTRGGHKERPTVMLFPFRNLGSPTQVISNPESKEEHAIYTADLAMGTRAPSNGKYKGPYQTLGGRALKENPVDLPATEQKE
notes: also called Wild-type GST-Tin2; WT GST-Tin2; not shown: glutathione-S-transferase (GST) encoded by vector pGex4X-1 (Pharmacia), linked to the N-terminus; linker residues not gi
As to B1, the binding result in data set [1] is reported as “binds”; in data set [2], “no binding”.
For B2, the binding result is “no binding” in data set [3] and “binds” in [4].

B3: GST-Tin2-12 (Tin2 with N-terminal deletion of aa 1-120, fused to GST) (other)
chain: LSEAPVDLASKLQELEQEYGEPFLAAMEKLLFEYLCQLEKALPTPQAQQLQDVLSWMQPGVSITSSLAWRQYGVDMGWLLPECSVTDSVNLAEPMEQNPPQQQRLALHNPLPKAKPGTHLPQGPSSRTHPEPLAGRHFNLAPLGRRRVQSQWASTRGGHKERPTVMLFPFRNLGSPTQVISNPESKEEHAIYTADLAMGTRAPSNGKYKGPYQTLGGRALKENPVDLPATEQKE
notes: not shown: GST carrier at the N end (vector pGex4X-1, Pharmacia) and its vector linker
For the molecule B3, the binding result in [1] is listed as “binds”.

B4: [TTAGGG]6 probes with flanks (6X-Tel 178 bp, Bi-6X-Tel 126 bp) (dsDNA)
DNA 1: TTAGGGTTAGGGTTAGGGTTAGGGTTAGGGTTAGGG
DNA 2: CCCTAACCCTAACCCTAACCCTAACCCTAACCCTAA
On to B4, for which the binding result with Trf1 + Tin2 complex [5] and with Trf1 (6his-Trf1) [6] was “binds” in each case.

B5: GST-Tin2-14 (Tin2 with C-terminal deletion of aa 276-354, fused to GST) (other)
chain: MATPLVAGPAALRFAAAASWQVVRGRCVEHFPRVLEFLRSLRAVAPGLVRYRHHERLCMGLKAKVVVELILQGRPWAQVLKALNHHFPESGPIVRDPKATKQDLRKILEAQETFYQQVKQLSEAPVDLASKLQELEQEYGEPFLAAMEKLLFEYLCQLEKALPTPQAQQLQDVLSWMQPGVSITSSLAWRQYGVDMGWLLPECSVTDSVNLAEPMEQNPPQQQRLALHNPLPKAKPGTHLPQGPSSRTHPEPLAGRHFNLAPLGRRRVQSQWAST
notes: as for B3
As to B5, the binding result in [1] was “binds”.

B6: [TTAGGG]13 double-stranded telomeric probe (dsDNA)
DNA 1: TTAGGGTTAGGGTTAGGGTTAGGGTTAGGGTTAGGGTTAGGGTTAGGGTTAGGGTTAGGGTTAGGGTTAGGGTTAGGG
DNA 2: CCCTAACCCTAACCCTAACCCTAACCCTAACCCTAACCCTAACCCTAACCCTAACCCTAACCCTAACCCTAACCCTAA
Turning to B6, the binding result (in the data set with Trf1 (6his-Trf1) [7]; with Trf1 + Tin2 complex [8]; in data set [9]) was “binds” each time.

B7: GST-Tin2-15 (N-terminal fragment aa 1-196 of Tin2, fused to GST) (other)
chain: MATPLVAGPAALRFAAAASWQVVRGRCVEHFPRVLEFLRSLRAVAPGLVRYRHHERLCMGLKAKVVVELILQGRPWAQVLKALNHHFPESGPIVRDPKATKQDLRKILEAQETFYQQVKQLSEAPVDLASKLQELEQEYGEPFLAAMEKLLFEYLCQLEKALPTPQAQQLQDVLSWMQPGVSITSSLAWRQYGVDM
notes: not shown: glutathione-S-transferase (GST) encoded by vector pGex4X-1 (Pharmacia)
As to B7, the binding result in data set [1] was “no binding”.
